From the supplement of paper PMC12636428

Tested on: Saccharomyces cerevisiae
Test: transcriptional activation domain activity (GFP:mCherry ratio, weighted mean of sorted bins, harmonized to initial dataset scale) (arbitrary fluorescence ratio units); higher = stronger transcriptional activation
Conditions: beta-estradiol 1 µM; induction time 4 h
In short: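 Values are activation activity, found as the read-weighted mean of bin median fluorescence, averaged across barcodes and then mapped linearly onto the initial dataset scale. Barcoded protein tiles fused to an estradiol-inducible synthetic transcription factor were integrated at the URA3 locus of GFP-reporter yeast diploids. Cells were induced for 4 hours at 30 °C with 1 uM beta-estradiol in SC, sorted into 8 bins by GFP:mCherry ratio, and barcode-sequenced, with tiles under 50 reads discarded.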

| Sequence | transcriptional activation domain activity |
| --- | --- |
| LCDNVTTQWREWMFPHNETLPALGQDGINEDNLNETIDNMLIFDFLDDGSENN | 109000 |
| EGGADGEEEEDGEEEVKEKVPAKRGRKPRGERVEEVSSPAAPVRGKKAKPTTA | 41200 |
| LLFFFFLFLSFSSLLHVWGLCLPISSFVGLWSLYLLFSPIPIVLPRVKLLFLA | 60200 |
| VQVDDRSIMVSELAVKLGRNFRAQLAILVLFRVVTSKEHIIRKGWKDIIRIWL | 62200 |
| GGAAGARKGAKRPKRAVGGAAAAAGGKKSADSDDEKPKEKSAPSGGGSKVGGI | 36600 |
| MTSRLHIICHICVFYGYILMFQAITSYHYFILLCILILILYLLTFILAHFYKY | 36800 |
| GDAGGSSAAEQREAGQERRQRRGAERRQRQSVFEQLGGAEQRGAGRGSAGRGG | < 6570 |
| MPEPAAAAAPRQRAFRTKSRLGCLQCKRRHVKCDERRPRCGRCVAAGSDCSLQ | 17400 |
| VFRLYFYLLYFIFYRNLFARLRNWEQYTLIQVASSVWVIIFYPLRMTRTTHGL | 65900 |
| MEVCSVWISSLWFFVFSAFSVLGLWSLVFGIWSFRESGWYMGPGFFFFFFLIL | 63100 |
| SSTNPGTESAKPEKPKRAPRQKASSKKADSKPKRTTARSKKAVKLAAEKLLSP | 15600 |
| AATSEATTVFWHDPSGFVDRLLGLTRFWFFTLLRYSYRVYFLASRERSRKPLS | 66100 |
| LFLAGILRWGSRIVLVLFLLLLFRLSLLFCLGHLFFAYSLSTLGILLLLMIFF | 31600 |
| MTGFSFLLMTFFFFLFFLFFFFISLFLLFFPLFSSHSLFFRLLAICSGLWCSG | 60000 |
| MGLLCFVFVLHSVFFIFNALSFLPWFVFLKIKFIFLCLSSFGRVFSSFIYMIF | 53000 |
| GIFCSPFFPFFVPLFCPPFPPPSLFPPLCISLPLSMPNSLLFLFTILYEYAGC | 56200 |
| LLIYGIVGFINLIKGEYLIVITGCKKIGSLVHNAEIYRATSFQILPVTHGLSS | 55300 |
| GGGGGSSRKRARGGESEDEAAGARANGVGNGPSNGKGKEKGKEVVDDGVAVGS | 55900 |
| EASPQPSPQPESQPAPEASPQPEPQPSSKPSPQPESQPVPEASPQPEPQPSPQ | 18200 |
| MFLSTVMTRSICTFIFVEFELHGDAKSLCCGGLCRFCRLCSKVGVNYYSPCWW | 73000 |
| AINVSFLHWIYIFHATGKHKYASQLARYLKNLHEVHPPELSQWLIEVFRKCHI | 61400 |
| MWLLHFSFLRVLPLFLLMLRCLLLAICIVTYINGPTLVFSHPLITIYSLTLLA | 56200 |
| MLLIWLYALKTGLVLSGSFLLAFGTQYPFFFMYFIGKPLFHDSFFLLSFLFFP | 70200 |
| EDEASQPAKPRARPAPSRAQNRSKEKSSKTARKRKDKSPPASQQEPEQDEGSE | 18600 |
| PSPPKCQVPTLYAVIFRILAYLRLLDAFLFHVYILLTLHELWLIIWIPHHHQS | 41400 |

| Sequence | transcriptional activation domain activity |
| --- | --- |
| KREQREKEKEAEREREREKAARAARRESRREERTRREDEKERGARHEERTSRY | 28000 |
| VGSWTFGSIMVFGFSYLALTVLPNLCLNCPYSTPVSEMSWHLSHRLLLFILLL | 31800 |
| PLIPHVLPSLFPCPLFLPLFPPSPLLSPFPPSLCFPLPPFFLFPPLPLFPPFL | 25600 |
| MSAPVEEKMAALNVNDKKPAAPKADKKAKKSKGTEGEYPLEFSPAPEYLQHRI | 30300 |
| DTWGMEMEMEMEFLFLFLFVIFFLPCLSFFFSYFFSSNLLFFFFVFVMSFSFM | 73000 |
| MICCDLSFGGKLFCKQLFLLLLVFCAILHYNWRWVYSDVLVMILMLAMIISLA | 43600 |
| KILNCLSIRLYLCRKGFGSLPNEQLALFNFNARECLRALGVTLFKPRLYRLCY | 80900 |
| KEVKEGEEGEKPKRGRKRKEAPAENGEKEPAAKKAKLASKAAPGSKPASKAAS | 28300 |
| MADFVSIWLVVVVDYHFYIYIVFAREQLFRHFCLVSSALAVGLSLFWLMLCFG | 68200 |
| YMGSVNLVHYYGVRTFSFILLGPCLTLVVVYRVLALFQSANQQFYILVLAYIA | 36200 |
| FDYMICPVHDLGIPAPLSVFLSTVLNRAVTTIPYAPYQTHLFFLSCFVSLVAP | 40500 |
| MQIQALAFPSYCQNTLFMPCTSIVCLDFFFLLHIFPLVPRSLDVFFLFLLVHL | 76400 |
| LDGSVDTSAPLDTGLFNSWMDIFQAFPFPAEGFTPDSFNDNYPIDPNQTFLTI | 141000 |
| LLEMGLRWTLDAFGDSARMAGHIFHCLSNLEMTLPSYMYIQLLRSILKLPKTV | 31000 |
| ESAPAAEDKPAEETKPAEAEEAPKAEEKKEEVKPIEEGHLNHKAQGLSFPKNL | < 6570 |
| AIYSNIMGFLGGVAWAMLVAHICQLFPNACAAAIVTRFFRIMYQWKWPQPVLL | 64900 |
| LHNRFGAFTPSKTPKSVFVVTYLGRVFITIMFCLVVVIAALTIKYSADSNNLY | 9590 |
| MPTDHASDTPSLGESSNQGAHKGYGRACLQCRQKKRKCRPSETKPDLCLLCEK | 40000 |
| MTCFVCNPFLLCAKVFVFFSVSWWVVLSSLFWGCFLMYVFLLFPIKMFLRFCS | 61000 |
| MTLGLMAFSEYNFADYACLFLFSSFLLFYLIFPIFSFLLLCVYFFFVSFHLYA | 27600 |
| LCASSLIWMTVSRHHLPPTIANLPATTLLILTFISLLLSIFLQFLFWALLFFW | 65300 |
| MVLLSRLIFVAVILSLTGCRSQLESRCMVFGYRRVLVVVVRAISSCAALLRCA | 71100 |
| MLCIWLLSLYVWFVQEKGAYKPVLSSSFFFWLILQVYVHRYWLPFPSLTFLYH | 55500 |
| VWFKIVWAWLYVFTSTWLLGVFLSYVKWWLLWVPWFLRSRVRCCVFLAILYIV | 73800 |
| NFFSCLSFLFLFIFLFIFLLFHFPYLFSFQFCLLPIFSHFSIDHQKPYPFPSF | 37700 |

| Sequence | transcriptional activation domain activity |
| --- | --- |
| SNGTNNSGNMNTNADYESFFNTGTNNSNSNQNPYFLSSRNNSLKFNPEDFDFQ | 59100 |
| LQCLLLSVLSPIGLVLLYSHLIGTDLIVIVSQLMFDYQVVQSWFIIFVCLVYW | 57400 |
| KRNKPNACGGCGAESDENGGALMMCSRCKDRKYCGAECQKTHWKVHKKVCEVA | 58500 |
| DTSSFFLRFFHFPFLQLFLLQCLISPCLYVRTCPISLLLLWWCFYSVFFCVRG | 50300 |
| MIKRLRWRRKIERNLPEFRLIPFLQRLLWLLLLLQFLLHLLHPPILCLHRLRY | 50700 |
| MAALGGGKYFVCMLTQIVVNFCFLLSVPFSSPPLLLPCYLIIRYSFSFFLFCL | 64700 |
| AYSITLPICSSPILLLFIQSLLFLLPLFSITLSPSFSFILYLLHLFSLLLLCL | 30200 |
| WRGRLVQRRSNDHEIDFVPYKTIYGGFWSHVNPSRLAVPRYLNIFRIIVWLFF | 54400 |
| GVCLKVGITRPKKPNSGERKTARVRLSSGRMITAYVPGEGHNIQQHSVVLVRG | 51900 |
| RRRVNLLVCTCGMLISLIVVGGLGTTHRGGPFNKPVGITIVVFSYINIICFNF | 45300 |
| SHREEAHEKASESESESGSEEQGSGGEKSEPKPEAEADGAADEASPGEEEGSQ | 24600 |
| RLKLFIMVVFCLGTIHEYALIGMYWSILISCRRSMSLECTTKLPWQMVLGVFM | 49800 |
| FYWIPIFRAVGKYKYSNLLNKFLLDLHLRYPKKLQNAIRSNWLCNPSGKKNKF | 64100 |
| MFLLLKYDFSLTDLLRILLRLNMFPILLSFIMDRPYTSYTLPWLISFWYLVFF | 66500 |
| NGIFILHHKWVIPTPFASHAFNPFDGFLQSLPYHLYVFMLPMHKWLYLGMFVF | 71400 |
| SRSGGGNGKPAGSGKNGSSQLKEVASRSRRRGDSDDDDRKGGSTRSGGGSRKV | 34000 |
| VPRHLFEKSTLKSLFYVGRHLGLTAAFYVFATHIDRIAWELCARFGYGHRIRG | 20700 |
| QARQAQEPAMSQKDLATKVNEKQSVINDYESGRAVPNQQLLAKLERALGVKLR | 51300 |
| MAFCSIPFYSPPPPQFRFISTFSPFPRFIIGPLFHPLLARKLFDFLLIFIVSF | 62700 |
| TDAGPGEEDEEVVHEVRAKALRHVPVKPDDDADSKKKNNSPWQPEGLGPLRIL | 34200 |
| HYNALNGRWKVFRNEKDEDSIRVVAGMVWWGKILVVTCVEKGVFQIRLFSSIN | 7550 |
| FTPWLSSTFFLFFAVIRWGAYCLVPLLLPSFPSIPLSLYPIRFPSTHVLVLIV | 61000 |
| KSGCGYILGHINIFQPINWILVTSSKVFPIDYILFLLLVMFFFSASIVGIATV | 34400 |
| MKFLFILCCHILPYVPIFYLMSLSSIFLHFTLLFIYLITLFYTFAYIFIFSFY | 50400 |
